Consider one molecule from article doi:10.1101/2022.11.29.518402 (bioRxiv, 2022).

Assay [1] addresses T1, ALFA-EMC7(M214C), cysteine in helix 2 (H2) of EMC7 (human, UniProt Q9NPA0 24-242, M214C).
T1 sequence: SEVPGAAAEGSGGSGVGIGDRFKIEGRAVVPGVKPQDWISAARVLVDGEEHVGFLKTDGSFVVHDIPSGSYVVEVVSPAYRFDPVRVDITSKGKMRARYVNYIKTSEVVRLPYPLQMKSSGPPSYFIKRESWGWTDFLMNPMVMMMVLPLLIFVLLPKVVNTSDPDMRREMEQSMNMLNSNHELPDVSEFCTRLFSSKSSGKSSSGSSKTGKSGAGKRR
Briefly: cross-linking.

Assay [2] addresses T2, EMC3(T102C)-GFP, cysteine in loop 2 of EMC3 (human, UniProt Q9P0I2 1-261, T102C).
T2 sequence: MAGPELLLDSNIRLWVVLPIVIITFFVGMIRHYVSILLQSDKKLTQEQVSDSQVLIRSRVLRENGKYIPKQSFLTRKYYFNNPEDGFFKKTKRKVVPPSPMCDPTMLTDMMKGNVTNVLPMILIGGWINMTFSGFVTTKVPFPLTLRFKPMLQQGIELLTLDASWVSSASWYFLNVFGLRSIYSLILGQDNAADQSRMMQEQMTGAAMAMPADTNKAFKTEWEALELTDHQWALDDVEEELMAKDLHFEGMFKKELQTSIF
Briefly: cross-linking.

B1: SQS(L401C): 3xFLAG-Sec61β(2-59, C39S)-SQS(378-end) with a cysteine at L401 in the TMD (other)
chain: PGPTPSGTNVGSSGRSPSKAVAARAAGSTVRQRKNASSGTRSAGRTTSAGTGGMWRFYSRSHYSPIYLSFVMLLAALSWQYCTTLSQVTEDYVQTGEH
modifications: 35S-methionine labelled
Regarding B1, the binding result in assay [1] and in assay [2] was “binds” each time.
